From IntAct's records for PubMed 23288039

B1: Serine/threonine-protein kinase Nek2 (Homo sapiens), P51955 (parent)
chain: MPSRAEDYEVLYTIGTGSYGRCQKIRRKSDGKILVWKELDYGSMTEAEKQMLVSEVNLLRELKHPNIVRYYDRIIDRTNTTLYIVMEYCEGGDLASVITKGTKERQYLDEEFVLRVMTQLTLALKECHRRSDGGHTVLHRDLKPANVFLDGKQNVKLGDFGLARILNHDTSFAKTFVGTPYYMSPEQMNRMSYNEKSDIWSLGCLLYELCALMPPFTAFSQKELAGKIREGKFRRIPYRYSDELNEIITRMLNLKDYHRPSVEEILENPLIADLVADEQRRNLERRGRQLGEPEKSQDSSPVLSELKLKEIQLQERERALKAREERLEQKEQELCVRERLAEDKLARAENLLKNYSLLKERKFLSLASNPELLNLPSSVIKKKVHFSGESKENIMRSENSESQLTSKSKCKDLKKRLHAAQLRAQALSDIEKNYQLKSRQILGMR

Variants of: B1
Conditions: with apc4_human ANAPC4, Q9UJX5
Sequence of apc4_human ANAPC4, Q9UJX5 (Q9UJX5 whole entry): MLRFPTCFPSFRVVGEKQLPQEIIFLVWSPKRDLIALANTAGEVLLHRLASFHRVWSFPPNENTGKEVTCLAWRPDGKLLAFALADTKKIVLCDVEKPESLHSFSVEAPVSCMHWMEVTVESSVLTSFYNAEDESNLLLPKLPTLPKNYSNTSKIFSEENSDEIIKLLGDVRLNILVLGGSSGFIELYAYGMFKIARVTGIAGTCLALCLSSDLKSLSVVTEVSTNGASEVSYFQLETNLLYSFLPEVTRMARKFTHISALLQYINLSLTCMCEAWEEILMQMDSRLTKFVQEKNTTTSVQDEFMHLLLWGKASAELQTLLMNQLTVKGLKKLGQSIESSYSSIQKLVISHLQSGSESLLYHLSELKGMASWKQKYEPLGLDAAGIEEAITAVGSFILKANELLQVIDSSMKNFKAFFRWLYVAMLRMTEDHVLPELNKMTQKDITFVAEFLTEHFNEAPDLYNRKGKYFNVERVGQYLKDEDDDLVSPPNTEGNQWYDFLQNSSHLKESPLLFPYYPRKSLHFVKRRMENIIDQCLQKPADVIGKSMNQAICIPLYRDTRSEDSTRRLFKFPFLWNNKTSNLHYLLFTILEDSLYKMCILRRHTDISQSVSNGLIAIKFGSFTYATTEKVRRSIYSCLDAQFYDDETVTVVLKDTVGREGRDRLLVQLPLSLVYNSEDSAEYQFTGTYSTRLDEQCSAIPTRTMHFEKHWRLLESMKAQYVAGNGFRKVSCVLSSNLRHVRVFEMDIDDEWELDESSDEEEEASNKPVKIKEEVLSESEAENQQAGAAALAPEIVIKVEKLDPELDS

Variant | effect of a mutation on the interaction
L313A | decreasing interaction
L320A | decreasing interaction
